# Results reported in patent publication US20210301018A1 (ITABMED HK, published 2021).
# T1: human CD19 on cells (human B lymphocytes; Raji, Daudi and Reh tumor cells) (human, UniProt P15391 20-556)
# T1 sequence (looked up): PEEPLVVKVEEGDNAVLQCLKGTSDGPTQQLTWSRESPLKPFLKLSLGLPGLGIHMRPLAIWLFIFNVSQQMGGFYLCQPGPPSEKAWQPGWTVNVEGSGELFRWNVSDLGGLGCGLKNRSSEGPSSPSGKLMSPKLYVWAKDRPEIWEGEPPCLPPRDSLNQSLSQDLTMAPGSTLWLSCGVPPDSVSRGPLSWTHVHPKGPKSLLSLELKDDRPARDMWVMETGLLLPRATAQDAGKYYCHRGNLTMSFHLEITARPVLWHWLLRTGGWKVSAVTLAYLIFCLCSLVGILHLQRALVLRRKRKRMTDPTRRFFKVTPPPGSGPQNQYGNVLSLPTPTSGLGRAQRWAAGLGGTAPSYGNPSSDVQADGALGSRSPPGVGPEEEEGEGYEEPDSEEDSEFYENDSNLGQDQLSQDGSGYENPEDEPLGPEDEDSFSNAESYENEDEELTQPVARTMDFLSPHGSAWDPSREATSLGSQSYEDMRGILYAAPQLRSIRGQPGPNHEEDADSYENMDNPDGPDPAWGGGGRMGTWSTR
# T2: cynomolgus monkey CD19 on cynomolgus monkey B lymphocytes (cynoPBMC) (cynomolgus monkey, UniProt A0A2K5W8L9 20-557)
# T2 sequence: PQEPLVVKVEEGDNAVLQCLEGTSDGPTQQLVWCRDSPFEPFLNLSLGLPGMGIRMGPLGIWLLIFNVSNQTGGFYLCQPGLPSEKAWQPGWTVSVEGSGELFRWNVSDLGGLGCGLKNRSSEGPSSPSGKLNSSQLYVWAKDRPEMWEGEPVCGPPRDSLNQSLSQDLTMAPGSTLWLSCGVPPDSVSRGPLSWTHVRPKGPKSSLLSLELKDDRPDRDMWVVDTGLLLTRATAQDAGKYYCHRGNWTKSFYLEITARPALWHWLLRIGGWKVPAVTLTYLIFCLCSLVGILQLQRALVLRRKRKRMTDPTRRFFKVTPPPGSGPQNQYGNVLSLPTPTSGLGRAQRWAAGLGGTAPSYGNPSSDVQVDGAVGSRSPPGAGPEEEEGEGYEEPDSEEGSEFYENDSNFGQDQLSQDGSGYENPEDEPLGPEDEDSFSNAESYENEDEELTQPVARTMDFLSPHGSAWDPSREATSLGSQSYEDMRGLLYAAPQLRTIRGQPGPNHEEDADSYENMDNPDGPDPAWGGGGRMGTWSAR
# B1: CD19×CD3 bispecific antigen binding protein ITAB2006 (bispecific antibody)
# chain: EVQLVESGGGLVQPGGSLRLSCAASGFTFNTYAMNWVRQAPGKGLEWVARIRSKYNNYATYYADSVKDRFTISRDDSKNTLYLQMNSLRAEDTAVYYCVRHGNFGNSYVSWFAYWGQGTMVTVSSGGGGSGGGGSGGGGSQAVVTQEPSLTVSPGGTVTLTCRSSTGAVTTSNYANWVQQKPGQAPRGLIGGTNKRAPGTPARFSGSLLGGKAALTLSGVQPEDEAEYYCALWYSNLWVFGGGTKLTVLGRAGGGGAGGGGQVQLVQSGPELIKPGGSVKMSCKASGYTFTSYVMHWVRQKPGQGLEWIGYINPYNDGTKYNEKFKGRATLTSDKSSSTAYMELSSLRSEDSAVYYCARGTYYYGSRVFDYWGQGTTVTVSSASTKGPSVFPLAPSSKSTSGGTAALGCLVKDYFPEPVTVSWNSGALTSGVHTFPAVLQSSGLYSLSSVVTVPSSSLGTQTYICNVNHKPSNTKVDKRVEPKSCPPCGGGGSHHHHHH
# light: DVVMTQSPSSIPVTLGESVSISCRSSKSLQNVNGNTYLYWFQQRPGQSPQLLIYRMSNLNSGVPDRFSGSGSGTDFTLRISGVEPEDVGVYYCMQHLEYPITFGAGTKLEIKRTVAAPSVFIFPPSDEQLKSGTASVVCLLNNFYPREAKVQWKVDNALQSGNSQESVTEQDSKDSTYSLSSTLTLSKADYEKHKVYACEVTHQGLSSPVTKSFNRGECPPCS
# B2: CD19×CD3 bispecific antigen binding protein ITAB2003 (bispecific antibody)
# chain: EVQLVESGGGLVQPGGSLRLSCAASGFTFNTYAMNWVRQAPGKGLEWVARIRSKYNNYATYYADSVKDRFTISRDDSKNTLYLQMNSLRAEDTAVYYCVRHGNFGNSYVSWFAYWGQGTMVTVSSGGGGSGGGGSGGGGSQAVVTQEPSLTVSPGGTVTLTCRSSTGAVTTSNYANWVQQKPGQAPRGLIGGTNKRAPGTPARFSGSLLGGKAALTLSGVQPEDEAEYYCALWYSNLWVFGGGTKLTVLGRAGGGQVQLVQSGPELIKPGGSVKMSCKASGYTFTSYVMHWVRQKPGQGLEWIGYINPYNDGTKYNEKFKGRATLTSDKSSSTAYMELSSLRSEDSAVYYCARGTYYYGSRVFDYWGQGTTVTVSSASTKGPSVFPLAPSSKSTSGGTAALGCLVKDYFPEPVTVSWNSGALTSGVHTFPAVLQSSGLYSLSSVVTVPSSSLGTQTYICNVNHKPSNTKVDKKVEPKSCPPCGGGGSHHHHHH
# light: DVVMTQSPSSIPVTLGESVSISCRSSKSLLNSNGNTYLYWFQQRPGQSPQLLIYRMSNLASGVPDRFSGSGSGTDFTLRISGVEPEDVGVYYCMQHLEYPLTFGAGTKLEIKRTVAAPSVFIFPPSDEQLKSGTASVVCLLNNFYPREAKVQWKVDNALQSGNSQESVTEQDSKDSTYSLSSTLTLSKADYEKHKVYACEVTHQGLSSPVTKSFNRGECPPC
# B3: CD19×CD3 bispecific antigen binding protein ITAB2005 (bispecific antibody)
# chain: B2 chain
# light: B1 light
# Key:
# Assay in all cases: cell-based or functional assay
# [1] = biological target: T1, human CD19 on cells (human B …)
# [2] = biological target: T2, cynomolgus monkey CD19 on cynomolgus …
# [3] = biological target: T1, human CD19 on cells (human B …); remark: listed apart in the source
# [4] = biological target: T2, cynomolgus monkey CD19 on cynomolgus …; remark: listed apart in the source
Binder,cell killing activity relative to ITAB2003 (human PBMC against autologous B cells) [1] [fold],cell killing activity relative to ITAB2003 (cynomolgus monkey PBMC against autologous B cells) [2] [fold],EC50 of CD19×CD3 BSAP mediated PBMC cytotoxicity against autologous B cells (human PBMC) [3] [ng/mL],EC50 of CD19×CD3 BSAP mediated PBMC cytotoxicity against autologous B cells (cynomolgus monkey PBMC) [4] [ng/mL],EC50 of CD19×CD3 BSAP mediated human PBMC cytotoxicity against Raji tumor cells [1] [ng/mL]
B1,≥ 7,≥ 62,0.2,18.5,–
B2,–,–,2.1,> 2090,0.49
B3,≥ 7,≥ 62,0.3,33.5,–
